The test deals with prototypic SARS-CoV-2 RBD (residues 319-541) (SARS-CoV-2 (prototype), UniProt P0DTC2 319-541). As to the kind of experiment: SPR. For orientation: SPR reads the build-up and loss of mass on a sensor chip optically.

In general, koff refers to a measure of how fast the partners let go of each other.

B1: S304 antibody (IgG1) (antibody, V domains shown)
VH: EVQLVESGGGLVQPGGSLRLSCAASGFTFSSYDMHWVRQTTGKGLEWVSTIGTAGDTYYPDSVKGRFTISREDAKNSLYLQMNSLRAGDTAVYYCARGDSSGYYYYFDYWGQGTLLTVSS
VL: DIQMTQSPSSLSAAVGDRVTITCRASQSIGSYLNWYQQKPGKAPKLLIYAASSLQSGVPSRFSGSGSGTDFTLTISSLQPEDFAIYYCQQSYVSPTYTFGPGTKVDIK
Turning to B1, the koff stood at 0.00664 s⁻¹.

These data come from paper PMC9399999 (2022).
